According to paper PMC8307404, “Crystal Structure-Guided Design of Bisubstrate Inhibitors and Photoluminescent Probes for Protein Kinases of the PIM Family” (Molecules, 2021):
Square brackets hold non-standard residues; d marks the D form. Peptide text beside a SMILES is read from it. * marks the point of attachment. X3 = O=C(CCCCCNCc1nc2c(sc3cc(Br)cnc32)c(=O)[nH]1)*

What was measured:
Experiment in all cases: Kinase profiling (radiometric filter-binding)
Format in all cases: biochemical
BRSK2 = biological target: T1, BRSK2 (Homo sapiens, UniProt Q8IWQ3); conditions: BRSK2, 1 µM inhibitor; read-out: Residual activity, %
T1 sequence (Q8IWQ3 1-736): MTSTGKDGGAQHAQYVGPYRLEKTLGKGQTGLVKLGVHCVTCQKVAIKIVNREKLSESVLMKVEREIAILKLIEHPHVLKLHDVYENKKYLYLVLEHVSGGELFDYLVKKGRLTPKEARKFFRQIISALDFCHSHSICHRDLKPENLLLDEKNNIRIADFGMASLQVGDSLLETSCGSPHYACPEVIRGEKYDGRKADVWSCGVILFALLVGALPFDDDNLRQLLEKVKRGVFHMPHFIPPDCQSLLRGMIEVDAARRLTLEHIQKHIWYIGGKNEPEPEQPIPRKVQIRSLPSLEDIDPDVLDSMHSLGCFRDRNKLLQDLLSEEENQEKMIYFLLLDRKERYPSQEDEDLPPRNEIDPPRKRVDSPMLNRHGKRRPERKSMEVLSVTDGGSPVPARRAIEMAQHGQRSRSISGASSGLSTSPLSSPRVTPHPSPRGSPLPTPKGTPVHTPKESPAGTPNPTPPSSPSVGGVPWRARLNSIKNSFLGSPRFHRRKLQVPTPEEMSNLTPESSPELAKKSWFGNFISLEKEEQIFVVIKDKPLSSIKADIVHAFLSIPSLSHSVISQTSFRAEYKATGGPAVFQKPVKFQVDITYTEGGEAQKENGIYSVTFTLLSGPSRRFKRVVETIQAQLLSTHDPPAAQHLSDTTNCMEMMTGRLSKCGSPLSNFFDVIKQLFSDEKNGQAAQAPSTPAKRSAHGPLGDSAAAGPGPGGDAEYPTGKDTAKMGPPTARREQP
Procedure: (§1) Kinase selectivity profiling was performed using the commercial service provided by the MRC PPU International Centre for Kinase Profiling (Dundee, UK) using a radiometric filter-binding assay. Kinases used for analysis were of human origin. The ATP concentration applied for inhibition measurements was at or below the ATP KM value of the particular PK. ARC-3125 and ARC-3126 were screened against 139 PKs, whereas compounds 1, 2, and 8 were screened against 140 PKs. The final total concentration of inhibitors in the selectivity panel was 1 µM. Residual activities were expressed as the percentage of retained activity compared to the control without inhibitor.

IRAK1 = IRAK1 (Homo sapiens, UniProt P51617); conditions: IRAK1, 1 µM inhibitor; read-out: Residual activity, %
Sequence of IRAK1 (P51617 whole entry): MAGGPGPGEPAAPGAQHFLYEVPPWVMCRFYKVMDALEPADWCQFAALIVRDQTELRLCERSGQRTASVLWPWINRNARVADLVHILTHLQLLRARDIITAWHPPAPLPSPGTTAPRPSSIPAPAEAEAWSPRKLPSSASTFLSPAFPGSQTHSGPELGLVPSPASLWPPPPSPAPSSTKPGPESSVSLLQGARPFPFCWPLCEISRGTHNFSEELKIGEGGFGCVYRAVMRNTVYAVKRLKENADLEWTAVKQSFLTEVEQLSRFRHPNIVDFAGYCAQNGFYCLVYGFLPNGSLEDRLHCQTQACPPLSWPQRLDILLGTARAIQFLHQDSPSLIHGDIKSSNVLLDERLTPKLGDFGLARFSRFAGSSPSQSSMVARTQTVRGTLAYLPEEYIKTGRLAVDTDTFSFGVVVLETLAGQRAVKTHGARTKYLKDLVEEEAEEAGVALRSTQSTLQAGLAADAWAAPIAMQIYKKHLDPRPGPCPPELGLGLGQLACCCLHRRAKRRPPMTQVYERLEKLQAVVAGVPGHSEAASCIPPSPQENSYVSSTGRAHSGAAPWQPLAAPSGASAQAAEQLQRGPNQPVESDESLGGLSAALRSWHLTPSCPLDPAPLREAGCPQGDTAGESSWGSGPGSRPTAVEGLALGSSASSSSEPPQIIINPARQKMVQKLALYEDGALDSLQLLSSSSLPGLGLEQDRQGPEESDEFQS
Procedure: as §1

SIK2 = SIK2 (Homo sapiens, UniProt Q9H0K1); conditions: SIK2, 1 µM inhibitor; read-out: Residual activity, %
Sequence of SIK2 (Q9H0K1 whole entry): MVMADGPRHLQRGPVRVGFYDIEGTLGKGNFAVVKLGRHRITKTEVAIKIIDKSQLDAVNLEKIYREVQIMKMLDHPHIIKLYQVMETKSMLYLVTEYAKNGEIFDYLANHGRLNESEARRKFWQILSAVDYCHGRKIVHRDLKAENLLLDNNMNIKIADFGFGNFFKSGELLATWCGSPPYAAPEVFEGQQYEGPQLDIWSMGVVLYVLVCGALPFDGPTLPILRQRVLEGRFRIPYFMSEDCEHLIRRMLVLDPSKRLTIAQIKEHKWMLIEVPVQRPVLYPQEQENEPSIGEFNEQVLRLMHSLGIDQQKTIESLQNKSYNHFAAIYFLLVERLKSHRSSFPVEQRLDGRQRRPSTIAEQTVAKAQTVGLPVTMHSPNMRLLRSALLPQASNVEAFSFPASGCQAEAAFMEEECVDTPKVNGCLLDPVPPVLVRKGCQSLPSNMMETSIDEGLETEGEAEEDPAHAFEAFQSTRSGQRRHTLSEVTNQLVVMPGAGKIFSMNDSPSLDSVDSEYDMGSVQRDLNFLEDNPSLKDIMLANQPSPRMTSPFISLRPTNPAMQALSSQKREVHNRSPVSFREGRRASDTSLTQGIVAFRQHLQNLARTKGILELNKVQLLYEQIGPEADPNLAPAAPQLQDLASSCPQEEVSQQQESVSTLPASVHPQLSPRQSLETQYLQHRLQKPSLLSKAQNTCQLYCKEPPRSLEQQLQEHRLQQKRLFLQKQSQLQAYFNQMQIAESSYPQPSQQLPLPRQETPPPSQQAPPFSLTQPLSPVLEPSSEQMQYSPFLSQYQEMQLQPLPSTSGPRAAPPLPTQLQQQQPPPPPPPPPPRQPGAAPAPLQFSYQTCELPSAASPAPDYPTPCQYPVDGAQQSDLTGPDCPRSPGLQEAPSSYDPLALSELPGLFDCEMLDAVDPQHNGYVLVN
Procedure: as §1

BTK = BTK (Homo sapiens, UniProt Q06187); conditions: 1 µM inhibitor, read-out: Residual activity, %
Sequence of BTK (Q06187 whole entry): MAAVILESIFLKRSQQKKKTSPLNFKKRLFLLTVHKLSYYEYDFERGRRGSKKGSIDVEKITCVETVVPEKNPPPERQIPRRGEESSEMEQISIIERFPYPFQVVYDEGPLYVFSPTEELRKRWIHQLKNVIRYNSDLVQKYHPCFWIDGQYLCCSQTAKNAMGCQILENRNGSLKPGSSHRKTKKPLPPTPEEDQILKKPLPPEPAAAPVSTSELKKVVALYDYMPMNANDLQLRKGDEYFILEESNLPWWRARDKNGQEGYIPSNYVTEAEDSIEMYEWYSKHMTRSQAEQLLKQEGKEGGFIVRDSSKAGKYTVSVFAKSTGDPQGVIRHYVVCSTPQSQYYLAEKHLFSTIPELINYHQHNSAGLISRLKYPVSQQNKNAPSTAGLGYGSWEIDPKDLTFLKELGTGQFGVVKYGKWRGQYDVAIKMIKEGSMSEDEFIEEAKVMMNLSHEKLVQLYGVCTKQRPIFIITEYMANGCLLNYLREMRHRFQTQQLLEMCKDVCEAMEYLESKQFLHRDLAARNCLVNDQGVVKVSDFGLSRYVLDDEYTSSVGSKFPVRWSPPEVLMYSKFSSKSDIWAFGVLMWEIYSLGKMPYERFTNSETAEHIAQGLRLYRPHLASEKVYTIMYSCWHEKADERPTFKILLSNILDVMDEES
Procedure: as §1

TLK1 = biological target: T2, TLK1 (Homo sapiens, UniProt Q9UKI8); conditions: TLK1, 1 µM inhibitor; read-out: Residual activity, %
T2 sequence (Q9UKI8 1-766): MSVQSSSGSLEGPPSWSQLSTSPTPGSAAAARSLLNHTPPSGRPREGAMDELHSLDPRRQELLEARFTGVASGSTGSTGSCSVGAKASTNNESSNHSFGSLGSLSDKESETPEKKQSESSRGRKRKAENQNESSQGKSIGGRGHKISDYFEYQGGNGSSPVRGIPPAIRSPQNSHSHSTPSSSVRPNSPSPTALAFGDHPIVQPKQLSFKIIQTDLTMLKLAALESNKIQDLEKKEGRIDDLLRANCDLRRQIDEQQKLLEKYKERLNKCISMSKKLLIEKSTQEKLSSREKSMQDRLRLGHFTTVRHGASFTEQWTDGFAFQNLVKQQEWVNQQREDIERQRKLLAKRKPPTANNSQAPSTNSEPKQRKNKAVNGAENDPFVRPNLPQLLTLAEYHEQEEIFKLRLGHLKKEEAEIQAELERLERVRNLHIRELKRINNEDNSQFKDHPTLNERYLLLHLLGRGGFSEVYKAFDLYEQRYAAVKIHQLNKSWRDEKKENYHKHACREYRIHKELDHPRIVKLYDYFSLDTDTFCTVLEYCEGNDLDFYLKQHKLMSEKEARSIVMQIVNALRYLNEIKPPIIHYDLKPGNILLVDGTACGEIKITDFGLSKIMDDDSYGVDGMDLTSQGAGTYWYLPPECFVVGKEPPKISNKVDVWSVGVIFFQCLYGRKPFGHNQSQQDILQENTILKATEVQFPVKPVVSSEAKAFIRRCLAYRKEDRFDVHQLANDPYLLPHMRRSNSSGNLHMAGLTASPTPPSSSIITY
Procedure: as §1

CHK2 = CHK2 (Homo sapiens, UniProt O96017); conditions: CHK2, 1 µM inhibitor; read-out: Residual activity, %
Sequence of CHK2 (O96017 whole entry): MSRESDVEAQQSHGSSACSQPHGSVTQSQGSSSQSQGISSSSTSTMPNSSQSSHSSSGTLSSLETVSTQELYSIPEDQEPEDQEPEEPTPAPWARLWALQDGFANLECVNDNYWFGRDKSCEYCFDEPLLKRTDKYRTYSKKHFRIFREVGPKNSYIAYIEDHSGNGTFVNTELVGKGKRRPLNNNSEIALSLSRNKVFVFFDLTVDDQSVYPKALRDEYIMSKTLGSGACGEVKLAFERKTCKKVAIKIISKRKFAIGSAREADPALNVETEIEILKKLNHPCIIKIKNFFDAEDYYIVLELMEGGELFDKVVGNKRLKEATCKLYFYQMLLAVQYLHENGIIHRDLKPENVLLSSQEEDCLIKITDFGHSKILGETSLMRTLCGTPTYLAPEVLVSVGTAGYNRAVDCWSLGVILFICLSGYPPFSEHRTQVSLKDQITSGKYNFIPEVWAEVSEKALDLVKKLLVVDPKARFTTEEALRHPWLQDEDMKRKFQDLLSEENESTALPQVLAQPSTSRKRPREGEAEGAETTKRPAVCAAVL
Procedure: as §1

IKK = biological target: T3, IKK (Homo sapiens, UniProt Q14164); conditions: second of two IKK lines (Greek letter lost), 1 µM inhibitor, read-out: Residual activity, %
T3 sequence (Q14164 1-716): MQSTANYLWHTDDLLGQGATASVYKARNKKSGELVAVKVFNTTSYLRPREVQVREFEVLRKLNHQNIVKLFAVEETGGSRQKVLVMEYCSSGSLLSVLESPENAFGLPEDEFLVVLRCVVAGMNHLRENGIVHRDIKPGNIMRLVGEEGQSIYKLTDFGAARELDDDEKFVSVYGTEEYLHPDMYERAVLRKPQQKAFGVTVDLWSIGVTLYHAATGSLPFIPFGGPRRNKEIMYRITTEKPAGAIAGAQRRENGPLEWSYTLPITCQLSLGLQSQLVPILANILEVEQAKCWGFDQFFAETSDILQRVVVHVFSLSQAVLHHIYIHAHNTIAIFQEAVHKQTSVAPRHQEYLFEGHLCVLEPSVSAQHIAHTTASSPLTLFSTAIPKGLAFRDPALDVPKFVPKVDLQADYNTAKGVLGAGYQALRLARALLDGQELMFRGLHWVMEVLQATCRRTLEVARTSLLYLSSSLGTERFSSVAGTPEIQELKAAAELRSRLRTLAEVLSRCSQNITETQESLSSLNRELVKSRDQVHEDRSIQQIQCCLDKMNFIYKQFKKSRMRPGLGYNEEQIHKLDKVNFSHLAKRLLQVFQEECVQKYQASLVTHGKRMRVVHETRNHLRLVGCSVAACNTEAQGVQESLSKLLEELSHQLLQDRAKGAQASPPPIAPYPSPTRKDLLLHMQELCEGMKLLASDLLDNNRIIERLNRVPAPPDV
Procedure: as §1

MARK1 = MARK1 (Homo sapiens, UniProt Q9P0L2); conditions: MARK1, 1 µM inhibitor; read-out: Residual activity, %
Sequence of MARK1 (Q9P0L2 whole entry): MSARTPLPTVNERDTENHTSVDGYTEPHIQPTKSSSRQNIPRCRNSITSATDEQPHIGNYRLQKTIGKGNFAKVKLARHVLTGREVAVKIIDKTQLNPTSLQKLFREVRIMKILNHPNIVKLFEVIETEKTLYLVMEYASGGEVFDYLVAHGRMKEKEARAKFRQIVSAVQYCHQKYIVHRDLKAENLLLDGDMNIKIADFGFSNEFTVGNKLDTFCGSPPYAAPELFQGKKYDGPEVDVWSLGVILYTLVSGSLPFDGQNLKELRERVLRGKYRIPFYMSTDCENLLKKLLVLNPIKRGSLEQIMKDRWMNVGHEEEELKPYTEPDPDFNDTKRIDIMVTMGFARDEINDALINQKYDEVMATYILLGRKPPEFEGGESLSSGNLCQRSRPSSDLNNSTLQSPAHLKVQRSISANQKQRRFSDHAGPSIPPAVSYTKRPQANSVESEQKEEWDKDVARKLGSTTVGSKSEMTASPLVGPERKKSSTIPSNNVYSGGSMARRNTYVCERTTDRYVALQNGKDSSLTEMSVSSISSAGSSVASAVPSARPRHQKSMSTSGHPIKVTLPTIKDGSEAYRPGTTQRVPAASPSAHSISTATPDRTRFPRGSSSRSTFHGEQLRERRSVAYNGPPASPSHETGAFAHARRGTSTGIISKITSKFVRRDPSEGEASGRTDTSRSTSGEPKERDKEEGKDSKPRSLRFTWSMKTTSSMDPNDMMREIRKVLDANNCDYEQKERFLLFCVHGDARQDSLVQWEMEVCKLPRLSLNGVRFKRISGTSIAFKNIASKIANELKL
Procedure: as §1

| Structure (SMILES) | remaining activity at 1 µM (BRSK2) [%] | remaining activity at 1 µM (IRAK1) [%] | remaining activity at 1 µM (SIK2) [%] | remaining activity at 1 µM (BTK) [%] | remaining activity at 1 µM (TLK1) [%] | remaining activity at 1 µM (CHK2) [%] | remaining activity at 1 µM (IKK) [%] | remaining activity at 1 µM (MARK1) [%] |
| --- | --- | --- | --- | --- | --- | --- | --- | --- |
| N=C(N)NCCC[C@@H](NC(=O)CCCCCNC(=O)Cn1cnc2c(I)c(I)c(I)c(I)c21)C(=O)N[C@H](CCCNC(=N)N)C(=O)N[C@H](CCCNC(=N)N)C(=O)N[C@H](CCCNC(=N)N)C(=O)N[C@H](CCCNC(=N)N)C(=O)N[C@H](CCCNC(=N)N)C(=O)N[C@H](CCCCN)C(N)=O [ARC-3125, TIBI-CH2-C(=O)-Ahx-(D-Arg)6-D-Lys-NH2] | 107 ± 23 | 16 ± 3 | 34 ± 4 | 31 ± 2 | 78 ± 1 | 116 ± 16 | 77 ± 4 | 76 ± 4 |
| N=C(N)NCCC[C@@H](NC(=O)CCCCCNCc1nc2c(sc3cc(Br)cnc32)c(=O)[nH]1)C(=O)N[C@H](CCCNC(=N)N)C(=O)N[C@H](CCCNC(=N)N)C(=O)N[C@H](CCCNC(=N)N)C(=O)N[C@H](CCCNC(=N)N)C(=O)N[C@H](CCCNC(=N)N)C(=O)N[C@H](CCCCN)C(N)=O [ARC-3126, BPTP-Ahx-(D-Arg)6-D-Lys-NH2] (X3-[dR][dR][dR][dR][dR][dR][dK]-NH2) | 100 ± 9 | 120 ± 2 | 109 ± 6 | 43 ± 2 | 91 ± 10 | 76 ± 15 | 118 ± 12 | 94 |
| N=C(N)NCCC[C@@H](NC(=O)CNC(=O)[C@@H](CCCNC(=N)N)NC(=O)[C@@H](CCCNC(=N)N)NC(=O)CCCCCCCNCc1nc2c(sc3cc(Br)cnc32)c(=O)[nH]1)C(=O)N[C@H](CCCCN)C(N)=O [Compound 1, BPTP-Aoc-(D-Arg)2-Gly-D-Arg-D-Lys-NH2] | 124 ± 12 | 131 ± 17 | 110 ± 5 | 106 ± 10 | 118 ± 1 | 107 ± 9 | 116 ± 9 | 110 ± 15 |
| N=C(N)NCCC[C@@H](NC(=O)CNC(=O)[C@@H](CCCNC(=N)N)NC(=O)[C@@H](CCCNC(=N)N)NC(=O)CCCCCCCNCc1nc2c(sc3ccc(Br)cc32)c(=O)[nH]1)C(=O)N[C@H](CCCCN)C(N)=O [Compound 2, BBTP-Aoc-(D-Arg)2-Gly-D-Arg-D-Lys-NH2] | 108 ± 12 | 134 ± 21 | 107 ± 10 | 99 ± 20 | 122 ± 9 | 103 ± 2 | 104 ± 15 | 113 ± 1 |
| N=C(N)NCCC[C@@H](NC(=O)CNC(=O)[C@@H](CCCNC(=N)N)NC(=O)[C@@H](CCCNC(=N)N)NC(=O)Cn1cc(CNCc2nc3c(sc4ccc(Br)cc43)c(=O)[nH]2)nn1)C(=O)N[C@H](CCCCN)C(N)=O [Compound 3, BBTP-Amt-(D-Arg)2-Gly-D-Arg-D-Lys-NH2] | 96 ± 8 | 113 ± 11 | 68 ± 3 | 82 ± 1 | 109 ± 10 | 52 ± 10 | 122 ± 12 | 106 ± 2 |
